Measured values published in patent US11813311B2, “Treatment and prevention of metabolic diseases” (Singapore Health Services PTE LTD., priority 2019, dated 2023).
Where two headings read alike, the source gives them in different places.

B1: X209: mouse anti-mouse IL-11Rα IgG (IgG1κ), neutralising; VH SEQ ID NO:24, VL SEQ ID NO:25 (antibody, V domains shown)
VH: QVQLQQPGAELVRPGSSVKLSCKASGYTFTNYWMHWLKQRPVQGLEWIGNIGPSDSKTHYNQKFKDKATLTVDKSSSTAYMQLNSLTSEDSAVYYCARGDYVLFTYWGQGTLVTVSA
VL: DIVLTQSPATLSLSPGERATLSCRASQSISNNLHWYQQKSHEAPRLLIKYASQSISGIPARFSGSGSGTDFTLSFSSLETEDFAVYFCQQSYSWPLTFGQGTKLEIK
modifications: Enx209 VH; Enx209 VL
B2: X203: mouse anti-mouse IL-11 IgG (IgG1κ), neutralising; VH SEQ ID NO:22, VL SEQ ID NO:23 (antibody, V domains shown)
VH: EVQLQQSGPELVKPGASVKIPCKASGYTFTDYNMDWVKQSHGKSLEWIGDINPHNGGPIYNQKFTGKATLTVDKSSSTAYMELRSLTSEDTAVYYCARGELGHWYFDVWGTGTTVTVSS
VL: DIVLTQSPASLAVSLGQRATISCRASKSVSTSGYSYIHWYQQKPGQPPKLLIYLASNLDSGVPARFSGSGSGTDFTLNIHPVEEEDAATYYCQHSRDLPPTFGGGTKLEIK
modifications: Enx203 VH; Enx203 VL

Tests used:
HFMCD-fed mice [1] = assay: HFMCD diet model of cachexia-related weight loss; format: in vivo, mouse
Excerpt: High fat methionine choline deficient diet (HFMCD) was used to establish cachexia-like metabolic disorder. In order to establish cachexia weight loss and lean mass loss, C57BL/6N mice were fed with methionine and choline deficient (HFMCD) diet supplemented with 60 kcal % fat (A06071301B, Research Diets).
Five-week old male mice were fed a methionine- and choline-deficient (MCD) diet with 60 kcal % fat (A06071301B, Research Diets), designated a high fat MCD (HFMCD) diet, which causes more severe NASH than an MCD diet alone. Control mice were fed with normal chow (NC; Specialty Feeds). Mice were intraperitoneally injected twice per week with 10 mg/kg of anti-IL-11 antibody or anti-IL-11 RA antibody, or identical concentration of IgG isotype control one week after they had received HFMCD for the same treatment duration. Body weight was measured weekly.
To investigate further the effect of inhibition of IL-11-mediated signalling with respect to cachexia, a range of doses of anti-IL-11 therapy were studied in the MCD model. Five-week old male mice were fed on the HFMCD or NC diet as before for one week to induce cachexia, resulting in a ˜15% loss in body weight in MCD mice. After the initial week, mice were intraperitoneally injected twice per week with 0.5, 1, 5 or 10 mg/kg of anti-IL-11 or anti-IL-11 RA antibody. Three antibodies were studied: two anti-IL-11 ((1) and (2)), and one anti-IL-11 RA. 10 mg/kg of IgG isotype antibody was used as a control.
Body weight and food consumption were measured weekly. For food consumption, average food intake was measured (g/mouse/week) in food hoppers from cages (n=3 mice per cage).

HFMCD-fed mice [2] = assay: Early-stage HFMCD NASH, antibody from week 1; format: in vivo, mouse; conditions: for development of fibrosis / lipid droplets in livers: HFMCD, 10 mg/kg biweekly from week 1; for hepatic lipid metabolism (lipogenesis and β-oxidation gene expression): RNA-seq, compared to IgG
Experimental: FIGS. 22A to 22K. Neutralisation of Il-11 signalling reverses liver damage in early stage NASH. (A) Relative liver mRNA expression of fibrosis and inflammation markers from mice fed with NC or HFMCD diets for the indicated time points. (B) Schematic of the anti-IL-11 therapy experiment early on in the HFMCD diet NASH model. Antibody treatments were started 1 week after the start of NASH diet when X209, X203, or IgG (10 mg/kg, biweekly) were administered intraperitoneally for 5 weeks. (C) Representative gross liver images and (D) Masson's Trichrome stained images of livers (scale bars, 100 μm) after 5 weeks of IgG or X209 treatments. (E) Hepatic triglyceride levels (n≥5/group), (F) liver hydroxyproline content of X209- and IgG-treated mice (n≥5/group), (G) serum ALT levels (n≥5/group). (H) Immunofluorescence images of IL6R and IL11RA expression in hepatocytes (scale bars, 100 μm). Dose-dependent effect of (I) IL-11 on ALT in hepatocyte supernatant and (J) stress fibers formation (rhodamine-phalloidin staining) in hepatocyte (scale bars, 200 μm). (K) IL-11 protein is secreted from primary human hepatocytes stimulated with TGFβ1 (5 ng/ml); 24 h. (E) Data are shown as box-and-whisker with median (middle line), 25th-75th percentiles (box) and min-max percentiles (whiskers); (F-G,I,K) data are shown as mean±s.d. (E) Tukey-corrected Student's t-test; (F,G) two-way ANOVA; (I,K) two-tailed Dunnett's test. FC: fold change; NC: normal chow; HFMCD: high fat methionine- and choline-deficient.
High fat methionine and choline-deficient (HFMCD) diet fed wild-type mice Five week old male C57BL/6N mice were fed with Methionine and Choline deficient diet supplemented with 60 kcal % fat (A060713011316, Research Diets); control mice were fed with normal chow (NC, Specialty Feeds). Durations of diet and antibody therapies are described.
Immune cells were isolated from liver as described previously 20. Liver tissues were minced and digested with 100 μg/ml Collagenase IV and 20 U/ml DNase I, at 37° C. for 1 h. Following digestion, cells were passed through strainer to obtain single cell suspension and subjected to percoll gradient centrifugation for isolation of immune cells. CyTOF staining was performed as previously described 21. Cells were thawed and stained with cisplatin (Fluidigm) to identify live cells, followed by staining with metal-conjugated CD45 antibody, for barcoding purpose. After barcoding, cells were stained with metal-conjugated cell surface antibody (Ly6C). Cells were then fixed with 1.6% PFA, permeabilized with 100% methanol, and subjected to intracellular antibody staining (TGFβ1). Cells were labeled with DNA intercalator before acquisition on Helios mass cytometer (Fluidigm). For analysis, first live single cells were identified, followed by debarcoding to identify individual samples. Manual gating was performed using Flowjo software (Flowjo).

TGFβ1-stimulated HSCs = assay: Inhibition of MMP2 secretion by TGFβ1-stimulated HSCs (IC50); format: cell-based, human
Experimental: HSCs (5300, ScienCell) were cultured in stellate cells complete media (5301, ScienCell) on poly-L-lysine-coated plates (2 μg/cm2, 0403, ScienCell).
HSCs were stimulated with TGFβ1(5 ng m1^−1, 24 h) in the presence of IgG (4 μg ml^−1) and varying concentrations of X209 (4 μg ml^−1 to 61 pg ml^−1; 4-fold dilutions). Supernatants were collected and assayed for the amount of secreted MMP2. Dose-response curves were generated by plotting the logarithm of X209 tested concentration (pM) versus corresponding percent inhibition values using least squares (ordinary) fit. The IC50 value was calculated using log(inhibitor) versus normalized response-variable slope equation.
The levels of IL-11 and MMP-2 in equal volumes of cell culture media were quantified using Human IL-11 Quantikine ELISA kit (D1100, R&D Systems) and Total MMP-2 Quantikine ELISA kit (MMP200, R&D Systems), respectively. Total secreted collagen in the cell culture supernatant was quantified using Sirius red collagen detection kit (9062, Chondrex). Total hydroxyproline content in the livers was measured using Quickzyme Total Collagen assay kit (Quickzyme Biosciences). Mouse serum levels of alanine aminotransferease (ALT), cholesterol, and triglycerides were measured using Alanine Transaminase Activity Assay Kit (ab105134, abcam), Cholesterol Assay Kit (ab65390, abcam), and Triglyceride Assay Kit (ab65336, abcam), respectively. […]

[3] = 0.5, 1, 5 or 10 mg/kg twice per week

| IC50 (TGFβ1-stimulated HSCs; TGFβ1 5 ng/ml, 24 h, 4 μg/ml to 61 pg/ml, 4-fold dilutions, read-out: IC50, blocking MMP2 secretion from HSCs) | IC50 (TGFβ1-stimulated HSCs; read-out: IC50 for HSC activation) | Molecule | body weight (HFMCD-fed mice [1]; 10 mg/kg twice per week from week 1, listed as anti-IL-11 RA, 10 mg/kg) | body weight (HFMCD-fed mice [1]; 10 mg/kg twice per week from week 1, listed as anti-IL-11Rα, 10 mg/kg) | body weight (HFMCD-fed mice [1]; [3]) | food consumption (HFMCD-fed mice [1]; [3]) | circulating TGFβ1 levels (HFMCD-fed mice [2]; HFMCD diet) | development of fibrosis (HFMCD-fed mice [2]) | lipid droplets in livers (HFMCD-fed mice [2]) | hepatic lipid metabolism (lipogenesis and β-oxidation gene expression) (HFMCD-fed mice [2]) | Ly6C+veTGFβ1+ve cells (HFMCD-fed mice [2]; during steatohepatitis, CyTOF) | immune cells in liver (HFMCD-fed mice [2]; during steatohepatitis, CyTOF) | body weight (HFMCD-fed mice [1]; 10 mg/kg twice per week from week 1, listed as anti-IL-11, 10 mg/kg) |
| --- | --- | --- | --- | --- | --- | --- | --- | --- | --- | --- | --- | --- | --- |
| 0.0058 nM | – | B1 | quickly regained weight and returned to normal, or near-normal, weight by 5 weeks later | returned to normal or near-normal weight | most effective in reversing weight loss | greatest increase in food intake | reduced | nor did these mice develop fibrosis | not seen | more so than X203, improved hepatic lipid metabolism | specific reduction | fewer immune cells | – |
| – | 0.0401 nM | B2 | – | – | – | – | – | nor did these mice develop fibrosis | not seen | improved hepatic lipid metabolism | – | – | quickly regained weight and returned to normal, or near-normal, weight by 5 weeks later |
